Experiments:
Assay in all cases: cell-based or functional assay
[1] = target: T1, cynomolgus monkey RXFP1 receptor (cynomolgus monkey)
T1 sequence: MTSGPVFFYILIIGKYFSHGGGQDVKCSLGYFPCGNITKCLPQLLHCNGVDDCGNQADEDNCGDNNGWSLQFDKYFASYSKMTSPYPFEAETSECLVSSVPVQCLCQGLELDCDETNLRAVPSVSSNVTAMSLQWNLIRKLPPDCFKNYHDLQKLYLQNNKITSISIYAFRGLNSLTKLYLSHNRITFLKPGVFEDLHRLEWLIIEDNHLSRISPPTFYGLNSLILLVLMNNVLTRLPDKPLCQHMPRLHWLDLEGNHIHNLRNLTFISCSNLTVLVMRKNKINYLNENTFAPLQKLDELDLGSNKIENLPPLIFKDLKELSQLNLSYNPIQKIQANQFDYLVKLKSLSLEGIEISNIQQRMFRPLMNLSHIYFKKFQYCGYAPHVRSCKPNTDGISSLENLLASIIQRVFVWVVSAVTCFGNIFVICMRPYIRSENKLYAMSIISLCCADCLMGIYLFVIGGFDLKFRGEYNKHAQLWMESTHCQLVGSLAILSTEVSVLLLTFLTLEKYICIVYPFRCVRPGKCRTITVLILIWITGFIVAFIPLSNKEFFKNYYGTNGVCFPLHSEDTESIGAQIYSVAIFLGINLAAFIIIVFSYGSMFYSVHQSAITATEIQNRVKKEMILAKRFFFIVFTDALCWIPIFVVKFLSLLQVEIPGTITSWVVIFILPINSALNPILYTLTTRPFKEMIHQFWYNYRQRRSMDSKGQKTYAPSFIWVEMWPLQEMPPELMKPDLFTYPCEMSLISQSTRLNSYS

dog RXFP1 receptor (dog) = target: dog RXFP1 receptor (dog)
[2] = target: T2, human RXFP1 receptor (human) (UniProt Q9HBX9)
T2 sequence (looked up): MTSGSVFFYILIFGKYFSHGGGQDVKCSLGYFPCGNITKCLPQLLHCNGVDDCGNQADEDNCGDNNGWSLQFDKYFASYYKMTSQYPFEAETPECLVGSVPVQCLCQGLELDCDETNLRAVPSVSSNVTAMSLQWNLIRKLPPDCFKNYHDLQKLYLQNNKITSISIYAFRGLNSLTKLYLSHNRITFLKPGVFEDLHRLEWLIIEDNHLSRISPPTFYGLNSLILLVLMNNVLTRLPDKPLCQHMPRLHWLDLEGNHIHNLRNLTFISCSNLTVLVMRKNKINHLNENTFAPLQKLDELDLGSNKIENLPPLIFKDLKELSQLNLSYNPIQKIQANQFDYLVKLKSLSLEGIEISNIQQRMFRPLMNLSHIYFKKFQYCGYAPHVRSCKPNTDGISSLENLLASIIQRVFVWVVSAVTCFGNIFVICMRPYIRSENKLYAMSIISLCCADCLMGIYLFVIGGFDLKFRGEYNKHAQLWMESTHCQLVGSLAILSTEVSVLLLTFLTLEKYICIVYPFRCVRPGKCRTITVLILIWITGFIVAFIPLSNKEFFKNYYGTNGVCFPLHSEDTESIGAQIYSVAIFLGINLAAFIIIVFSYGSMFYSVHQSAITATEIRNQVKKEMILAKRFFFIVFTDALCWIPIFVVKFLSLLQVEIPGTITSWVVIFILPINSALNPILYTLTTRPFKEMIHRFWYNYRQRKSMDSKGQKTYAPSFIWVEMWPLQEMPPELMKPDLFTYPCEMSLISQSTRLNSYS

[3] = target: human RXFP2 receptor (human) (UniProt Q8WXD0)
[4] = target: T3, mouse RXFP1 receptor (mouse) (UniProt Q6R6I7)
T3 sequence (looked up): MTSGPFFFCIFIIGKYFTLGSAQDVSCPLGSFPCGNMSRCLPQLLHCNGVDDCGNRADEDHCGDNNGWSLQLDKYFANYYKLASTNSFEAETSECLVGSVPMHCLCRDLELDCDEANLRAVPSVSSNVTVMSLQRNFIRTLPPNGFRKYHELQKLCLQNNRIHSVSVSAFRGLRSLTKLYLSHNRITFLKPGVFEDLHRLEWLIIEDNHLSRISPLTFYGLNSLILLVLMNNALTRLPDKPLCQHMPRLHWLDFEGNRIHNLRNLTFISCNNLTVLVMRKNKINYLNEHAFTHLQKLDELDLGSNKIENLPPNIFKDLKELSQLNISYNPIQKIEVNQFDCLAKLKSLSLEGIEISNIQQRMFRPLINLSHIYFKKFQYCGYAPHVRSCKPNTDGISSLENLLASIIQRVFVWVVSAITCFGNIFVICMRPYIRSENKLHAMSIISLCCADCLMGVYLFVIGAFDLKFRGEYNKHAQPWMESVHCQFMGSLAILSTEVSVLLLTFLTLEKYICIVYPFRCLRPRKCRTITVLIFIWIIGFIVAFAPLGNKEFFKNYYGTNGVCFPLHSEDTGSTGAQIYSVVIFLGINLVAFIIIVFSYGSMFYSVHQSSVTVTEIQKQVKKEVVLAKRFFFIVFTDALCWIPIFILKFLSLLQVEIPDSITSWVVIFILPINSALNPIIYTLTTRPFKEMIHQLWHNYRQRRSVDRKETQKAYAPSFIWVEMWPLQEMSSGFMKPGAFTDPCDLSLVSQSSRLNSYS

rat RXFP1 receptor (rat) = target: T4, rat RXFP1 receptor (rat) (UniProt Q6R6I6)
T4 sequence (looked up): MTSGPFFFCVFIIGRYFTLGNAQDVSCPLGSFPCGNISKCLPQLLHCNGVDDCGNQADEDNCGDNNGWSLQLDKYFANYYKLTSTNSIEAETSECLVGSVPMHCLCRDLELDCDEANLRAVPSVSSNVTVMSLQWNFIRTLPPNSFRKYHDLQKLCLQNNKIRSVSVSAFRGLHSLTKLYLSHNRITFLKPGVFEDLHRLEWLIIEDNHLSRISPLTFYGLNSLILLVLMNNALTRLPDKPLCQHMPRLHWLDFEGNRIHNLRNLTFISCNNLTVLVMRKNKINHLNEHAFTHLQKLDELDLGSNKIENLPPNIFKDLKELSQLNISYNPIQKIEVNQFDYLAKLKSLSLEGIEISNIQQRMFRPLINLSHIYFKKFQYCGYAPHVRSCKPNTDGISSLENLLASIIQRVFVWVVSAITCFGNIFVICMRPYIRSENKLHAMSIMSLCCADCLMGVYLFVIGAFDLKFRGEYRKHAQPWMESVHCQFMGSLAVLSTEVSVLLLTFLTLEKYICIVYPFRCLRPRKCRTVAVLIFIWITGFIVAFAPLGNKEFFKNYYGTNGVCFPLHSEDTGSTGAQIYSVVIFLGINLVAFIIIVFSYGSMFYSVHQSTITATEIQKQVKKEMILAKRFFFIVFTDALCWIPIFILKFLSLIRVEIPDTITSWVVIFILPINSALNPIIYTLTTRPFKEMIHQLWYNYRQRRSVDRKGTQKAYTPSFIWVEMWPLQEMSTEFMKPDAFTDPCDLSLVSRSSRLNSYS

EC50 (nM), cAMP production in CHO-K1 cells with receptor overexpression [1]: 21.8 nM | EC50 (nM), cAMP production in CHO-K1 cells with receptor overexpression (dog RXFP1 receptor (dog)): 3040 nM | EC50 (nM), cAMP production in CHO-K1 cells with receptor overexpression [2]: 25.6 nM | EC50 (nM), cAMP production in THP1 cells, 1% HSA [2]: 15.8 nM | EC50 (nM), cAMP production in THP1 cells, without HSA [2]: 10.3 nM | EC50 (nM), cAMP production in CHO-K1 cells with receptor overexpression [3]: 1350 nM | EC50 (nM), cAMP production in CHO-K1 cells with receptor overexpression [4]: 23.4 nM | EC50 (nM), cAMP production in CHO-K1 cells with receptor overexpression (rat RXFP1 receptor (rat)): 10.5 nM
B1: 0054 (protein)
chain: EVQLLESGGGLVQPGGSLRLSCAASGRYIDETAVAWFRQAPGKGREFVAGIGGGVDITYYADSVKGRFTISRDNSKNTLYLQMNSLRPEDTAVYYCAARPGRPLITSKVADLYPYWGQGTLVTVSSGGGGQGGGGQGGGGQGGGGQGGGGQSWMEEVIKLCGRELVRAQIAICGMSTWSGGGSGGSGGGQLYSALANKCCHVGCTKRSLARFC

— patent publication US20250312444A1
